Patent publication US20060165686A1 (NOVIMMUNE S A, published 2006)

Experiments:
Experiment in all cases: cell-based or functional assay
[1] = target: human toll-like receptor 2 (TLR2) (human, UniProt O60603 21-784)
[2] = target: human toll-like receptor 4 (TLR4) (human, UniProt O00206 24-839)
[3] = target: T1, human MD-2 accessory protein (human, UniProt Q9Y6Y9 19-160)
T1 chain: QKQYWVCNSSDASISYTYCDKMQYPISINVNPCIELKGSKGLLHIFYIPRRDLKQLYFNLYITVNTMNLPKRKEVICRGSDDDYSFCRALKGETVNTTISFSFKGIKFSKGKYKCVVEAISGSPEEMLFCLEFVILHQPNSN

Chain of human toll-like receptor 2 (TLR2) (O60603 21-784): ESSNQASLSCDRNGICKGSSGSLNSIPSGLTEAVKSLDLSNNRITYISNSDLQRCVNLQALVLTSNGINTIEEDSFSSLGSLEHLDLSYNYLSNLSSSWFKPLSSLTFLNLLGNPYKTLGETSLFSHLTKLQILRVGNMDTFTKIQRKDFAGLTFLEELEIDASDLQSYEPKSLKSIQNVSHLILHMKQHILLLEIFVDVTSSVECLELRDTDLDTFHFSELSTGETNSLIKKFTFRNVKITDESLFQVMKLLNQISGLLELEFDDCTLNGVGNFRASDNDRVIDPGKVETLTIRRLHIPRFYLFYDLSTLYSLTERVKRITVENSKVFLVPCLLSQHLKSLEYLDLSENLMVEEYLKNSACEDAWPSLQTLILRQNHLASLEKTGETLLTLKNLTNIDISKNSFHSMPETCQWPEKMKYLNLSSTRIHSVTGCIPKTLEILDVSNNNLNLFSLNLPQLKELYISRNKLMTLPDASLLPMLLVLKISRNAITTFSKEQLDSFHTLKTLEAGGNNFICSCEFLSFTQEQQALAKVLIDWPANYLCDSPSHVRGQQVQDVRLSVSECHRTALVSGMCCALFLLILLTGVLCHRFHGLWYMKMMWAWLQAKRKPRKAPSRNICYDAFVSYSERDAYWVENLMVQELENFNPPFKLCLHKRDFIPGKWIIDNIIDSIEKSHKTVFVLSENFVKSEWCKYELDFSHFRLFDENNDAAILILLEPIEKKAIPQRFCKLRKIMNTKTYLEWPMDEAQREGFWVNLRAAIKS
Chain of human toll-like receptor 4 (TLR4) (O00206 24-839 limits assumed): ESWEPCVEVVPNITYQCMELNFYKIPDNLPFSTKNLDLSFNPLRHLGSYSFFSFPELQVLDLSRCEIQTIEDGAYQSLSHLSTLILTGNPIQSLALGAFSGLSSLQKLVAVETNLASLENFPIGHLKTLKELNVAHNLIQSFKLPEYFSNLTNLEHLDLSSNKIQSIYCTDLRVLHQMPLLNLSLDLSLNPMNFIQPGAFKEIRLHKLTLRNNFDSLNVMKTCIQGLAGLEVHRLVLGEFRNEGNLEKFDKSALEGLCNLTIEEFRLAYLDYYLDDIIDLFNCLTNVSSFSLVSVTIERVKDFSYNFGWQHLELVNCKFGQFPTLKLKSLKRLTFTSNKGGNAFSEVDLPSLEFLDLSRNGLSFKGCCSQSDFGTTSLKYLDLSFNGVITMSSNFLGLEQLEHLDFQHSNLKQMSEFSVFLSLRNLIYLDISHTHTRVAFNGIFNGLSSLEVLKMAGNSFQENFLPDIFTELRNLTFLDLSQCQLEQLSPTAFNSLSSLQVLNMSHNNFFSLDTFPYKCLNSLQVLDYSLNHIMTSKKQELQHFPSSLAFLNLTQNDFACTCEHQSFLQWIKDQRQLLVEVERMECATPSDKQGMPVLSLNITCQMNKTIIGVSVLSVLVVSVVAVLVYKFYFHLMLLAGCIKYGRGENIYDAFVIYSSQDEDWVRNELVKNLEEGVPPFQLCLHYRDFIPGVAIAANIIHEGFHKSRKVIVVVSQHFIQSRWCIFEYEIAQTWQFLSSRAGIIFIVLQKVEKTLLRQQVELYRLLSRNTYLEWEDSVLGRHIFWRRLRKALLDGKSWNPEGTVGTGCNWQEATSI

B1: α-human TLR2 MAb T2.5 (antibody, V domains shown)
VH: QVQLQQSGPELVNPGASVKLSCKASGFTFTTYGINWVKQGPGQGLEWIGWIYPRDGSTNFNENFKDKAALTVDTSSSTAYMELHSLTSEDSAVYFCARLTGGTFLDWWGQGTTLTVSS
VL: DIVLTQSPASLAVSLGQRATISCRASESVEYYGTSLMQWYQQKPGQPPKLLIFGASNVESGVPVRFSGSGSGTDFSLNIHPVEEDDIVMYFCQQSRKLPWTFGGGTKLEIKR
IL-6 production induced by pseudomonas LPS in human whole blood [1]: ~50%

B2: α-human TLR4 MAb 15C1 (murine 15C1 monoclonal antibody) (antibody, mouse IgG1, V domains shown)
VH: DVQLQESGPDLIQPSQSLSLTCTVTGYSITGGYSWHWIRQFPGNKLEWMGYIHYSGYTDFNPSLKTRISITRDTSKNQFFLQLNSVTTEDTATYYCARKDPSDGFPYWGQGTLVTVSA
VL: DIVMTQSPATLSVTPGDRVSLSCRASQSISDHLHWYQQKSHESPRLLIKYASHAISGIPSRFSGSGSGTDFTLSIKSVEPEDIGVYYCQNGHSFPLTFGAGTKLELK
IL-6 production induced by pseudomonas LPS in human whole blood [2]: ~50%

B3: α-human MD-2 MAb 18H10 (murine 18H10 monoclonal antibody) (antibody, mouse IgG2b, V domains shown)
VH: QVQLQQSGADLVRPGALVKLSCTASGFNIKDSYIHWVKKRPEWGLEWIGWTDPENVNSIYDPRFQGKASITADTSSNTAFLQLTSLTSEDTAVYYCARGYNGVYYAMDYWGQGTSVTVSS
VL: QIVLTQSPSIMSASLGEEITLTCSASSSVIYMHWYQQKSGTSPKLLIYRTYNLASGVPSRFSGSGSGTFYSLTISSVEAEDAADYYCHQWSSFPYTFGGGTKLEIKR
IL-6 production induced by pseudomonas LPS in human whole blood [3]: ~50%
